The DeepSol protein solubility set

test: soluble on expression in E. coli; label from the status in PepcDB or PDB records

Row | Sequence | soluble on expression in E. coli
1 | MSGGSDQVKNMIYINGNRRGHCFITSGITFKEFASNIPSPLHQVLLLKHNFEWTDFHYHTLFEYVEEENIHKLIQAEIDEFDEFCWVDFDDASDLDELEPKEIAELLYLAHKKEPLARTFFPLLKNRFVYFSHDDGWYNKVYYRRIADFVGMLSKVIPYKLGAFGKKRFSFFQKSKIFPAISKELIMGLIPLMEDGLYIDLAGKIESRRGLEIPVYVVGSYESTDEVLDNIDELKEEATETGWLIFDKKEQEWQWVVD | not soluble
2 | MSGIGKRELIELYDKLLQFYGKQNWWPVDLEYHKTHGSDPREEVIIGAILTQNTSWKNVEKALENLKREKALNLKAIKEIPTEKLMELIKPAGFYRQKSLYLKEFANKFPSISHLKNVKREDLLKVKGIGKETADAILLYALDRLEFVVDAYTKRLLERLWNIKGSYEEIKRLFEKNLPKDLEIYREFHALIDIHAKEFCKKKPLCEECPLREKCIKSCF | soluble
3 | MSGKEEFQTIKERAKRKLERDMGADLLAALNDPKTVEVMLNADGKVWHERLGEPMRYICDMRPSQSQAIIETVAGFHGKEVTRHSPILEGEFPLDGSRFAGQLPPVVAAPTFAIRKRAVAIFTLEQYVEAGIMTREQYEVIKSAVAAHRNILVIGGTGSGKTTLVNAIINEMVAFNPSERVVIIEDTGEIQCAAENAVQYHTSIDVSMTLLLKTTLRMRPDRILVGEVRGPEALDLLMAWNTGHEGGAATLHANNPKAGLSRLAMLISMHPDSPKPIEPLIGEAVHVVVHIARTPSGRRVQEILEVLGYENGQYITKTL | not soluble
4 | MSGQNNVVGVHYKVGRRIGEGSFGVIFEGTNLLNNQQVAIKFEPRRSDAPQLRDEYRTYKLLAGCTGIPNVYYFGQEGLHNVLVIDLLGPSLEDLLDLCGRKFSVKTVAMAAKQMLARVQSIHEKSLVYRDIKPDNFLIGRPNSKNANMIYVVDFGMVKFYRDPVTKQHIPYREKKNLSGTARYMSINTHLGREQSRRDDLEALGHVFMYFLRGSLPWQGLKAATNKQKYERIGEKKQSTPLRELCAGFPEEFYKYMHYARNLAFDATPDYDYLQGLFSKVLERLNTTEDENFDWNLL | soluble
5 | MSGVSLGRGQNANAAYLDNIKELGFKLVRRPTGGGALLHPEDNEITYSVVLSASNTIAKLSVDESAVEIAKGILYTLQILGENVDIRGLGDMKKHDLCYLRSGSSDVIVAGRKISGSAQVRDDKALLQHGTLLLRFEPEI | soluble
6 | MSGVTAIEIPQWIQDNQEDFVPPVCNKCMFSDQLKVFYVGGPNQRKDFHLEEGEEFFFQRKGDMVLKVIEKGQVRDLVIKQGEMFMLPARVEHSPQRFSNSIGLVVERERKNTEFDCVRFLVGSSNITLFERWFYLTDVVKDLPPLIKEFYGSNEFKTGKPGKGTFACNAPYEARWTDLPVPINRKEFIYDHISEVKNGPVRIYGAPEYKTEVMLLGEGSYDLESGTVELLIWLQENTFAVVEESGFTYAMKSETMVRIKPNTKCLLNVKGGFAITIRMPA | not soluble
7 | MSHGHSHDGAPCGGHHGDDGAGGSRPSVNDVQALVDQLRLAGVDVSNMPNIPTAPRDMDEARSKSFQFWSTQPVPQMDETVPADVNCAIEENIALDKVRAEPFSLPAGFRWSNVDLSDEEQLNELYNLLTRNYVEDDDSMFRFDYSADFLKWALQVPGFRPEWHCGVRADSNNRLLAFIGAVPQTVRVYDKTVNMVEINFLCVHKNLRSRRVAPVLIREITRRVNVTGIFQAAFTAGIVIPKPVSVCRYYHRSLNPRKLIDVRFSHLSAKMTMARTIKLYKLPEETATRNLREMKSTDVPQVFKLLTTSLKQYSLAPVYNSEEELAHALVPKKGVVYSYVAENQNGKITDFVSFYSLPSTVMGHTTHKTIYAAYLYYYVAGSVTPKQLINDSLILANREKFDVFNALDLMHNEKIFSDLKFGKGDGNLQYYLYNWKCADMKPSQIGLVLQ | not soluble
8 | MSHVELQPGFDFQQAGKEVLAIERECLAELDQYINQNFTLACEKMFWCKGKVVVMGMGKSGHIGRKMAATFASTGTPSFFVHPGEAAHGDLGMVTPQDVVIAISNSGESSEITALIPVLKRLHIPLICITGRPESSMARAADVHLCVKVAKEACPLGLAPTSSTTATLVMGDALAVALLKARGFTAEDFALSHPGGALGRKLLLRVNDIMHTGDEIPHVKKTASLRDALLEVTRKNLGMTVICDDNMMIEGIFTDGDLRRVFDMGVDVRQLSIADVMTPGGIRVRPGILAVEALNLMQSRHITSVMVADGDHLLGVLHMHDLLRAGVV | soluble
9 | MSIEVRDCNGALLADGDNVSLIKDLKLKGSSTVLKRGTMIRGIRLTDSEDEIEGRTDKIKGLVLRTEFLKKAGS | soluble
10 | MSIFPTRDSRDLSSRRRSLIDWEFPQMALVPLDQVFDWAERSRQSLHDDIVNMHRNLFSLEPFTAMDNAFESVMKEMSAIQPREFHPELEYTQPGELDFLKDAYEVGKDGRLHFKVYFNVKNFKAEEITIKADKNKLVVRAQKSVACGDAAMSESVGRSIPLPPSVDRNHIQATITTDDVLVIEAPVNEPNYKAIKLSPEKGLAIQPSEVQERQLAVKNKEGLEIVTAEDGSKKIHLELKVDPHFAPKDVKVWAKGNKVYVHGVTGKEEKTENASHSEHREFYKAFVTPEVVDASKTQAEIVDGLMVVEAPLFK | soluble
11 | MSIKKSPVYNVIAVPVEKVQANDYNPNVVAPPEMRLLELSIWEDGFTMPCVCYYDKEKDVYILVDGFHRYSVLKTSKRIFQRENGMLPIVVIEKDLSNRMSSTIRHNRARGTHN | soluble
12 | MSILVTRPSPAGEELVSRLRTLGQVAWHFPLIEFSPGQQLPQLADQLAALGESDLLFALSQHAVAFAQSQLHQQDRKWPRLPDYFAIGRTTALALHTVSGQKILYPQDREISEVLLQLPELQNIAGKRALILRGNGGRELIGDTLTARGAEVTFCECYQRCAIHYDGAEEAMRWQAREVTMVVVTSGEMLQQLWSLIPQWYREHWLLHCRLLVVSERLAKLARELGWQDIKVADNADNDALLRALQLEHHHHHH | not soluble
13 | MSIMKTADRPHAMNRRQDAIFLEVFWARVRSIADEAAKLIVRTSFSTLSTEANDFTVVVTDSAGRCLTENSGSIPAFIGTLPATVQAVIAKYPHHTLRPGDVFITNDPWIGTGHLNDVCLVKPVFHLGKVVAFAATAGHVPDIGGRFRSVNAHELFEEGLQIPVIRLLDQGAPNEAILDMIRTNVRTPDQTAGDIWSQASAVELVARRLGEVLVEYALPGVDDIAEALFERGDRALRKAISALPDGQYRYAMQTDGFEQRLDLAVTVRIEGDAITCDFTGTSPQQPRAINCPLGYTTAMAVYAIKCLLVPDIPNSDGMLRAIRVEAPEHSLLNPARPAAVGGRASTGHYLPVLIFGAMHAVLPERVMAGAGSPLWSANISGTGADGLPMATVLFFNGGMGATCGKDGAAVMSWPSNISPTPVEVAERDIPLFFRYKRLRVDSGGPGQWRGGLGEEVCMVSRHDRPLSVVFLAERTREPAPGLGGGQAGVPGAVWINGVAVDVRERHLLNPGDELVMRTPGGGGFGPPGQRDPALADHDYRLGYSAAPGTARQS | not soluble
14 | MSIQKNTSTTSSSTLLDLIVIGGGINGAGIAADAAGRGLSVGLYEANDFASATSSASSKLIHGGLRYLEHYEFRLVSEALAEREVILRKAPHVALPMRFRLPHRPFLRPAWMIRCGLFLYDNLGKRTTLPGSKTVNLAKSGLLKPEMKTGFEYSDCWVDDARLVLLNVMAARENHAEVRNYCRVEKAHRENGVWHVTIHDVTTDQRFERKAKALVNAAGPWVKQFFDEGLEQTSPRNIRLIKGSHIVVPRIHNEPQAYILQNKDNRIVFMIPYLDKFSIIGTTDVEYKGDPREVAISDDEVDYLIDIVNQHFVHQLTREDVVWTYSGVRPLCDDESDSPQAITRDYTLELDAEYDQAPLLSVFGGKLTTYRKLGEAAMKKLEPYLPQMGGNWTANQTLPGGNFSCTREQLAKQIHAKYSWAPQALILRYVTQFGTQTWDLMEGASSEADLGQAFSEQAGGVYQREIDYLMNHEMALTDEDILWRRTKLGLYMNDEEKQALADYLKEKLQQKVVNLSQVSLEHHHHHH | soluble
15 | MSIQYEAPLADSYGVADSFPKDFGYGEEEGDIEDSPSPSDSKPRILLMGLRRSGKSSIQKVVFHKMSPNETLFLESTNKIYKDDISSSSFVNFQIWDFPGQVDFFDPTFDYELIFRGTGALIFVIDAQDDYVEALSRLHLTVSRAYRVNPEINFEVFIHKVDGLSDDHKIETQRDIHQRANDDLADASLEKLHLSFYLTSIYDHSIFEAFSKVVQKLIPQLPTLENLLNIFISNSGIEKAFLFDVVSKIYIATDSSPVDMQSYELCCDMIDVVIDVSCIYGLKEDGSGSAYDKESMAIIKLNNTTVLYLKEVTKFLALVCILRGESFERKGLIDYNFHCFRKAIHEVFEVGVSTSRTSNQPVGTPLMKTVALNGTPRSTV | soluble
16 | MSIRFARKADCAAIAEIYNHAVLYTAAIWNDQTVDADNRIAWFEARTLAGYPVLVSEENGVVTGYASFGDWRSFDGFRHTVEHSVYVHPDHQGKGLGRKLLSRLIDEARDCGKHVMVAGIESQNQASLHLHQSLGFVVTAQMPQVGTKFGRWLDLTFMQLQLDERTEPDAIG | soluble
17 | MSISDTVKRAREAFNSGKTRSLQFRIQQLEALQRMINENLKSISGALASDLGKNEWTSYYEEVAHVLEELDTTIKELPDWAEDEPVAKTRQTQQDDLYIHSEPLGVVLVIGAWNYPFNLTIQPMVGAVAAGNAVILKPSEVSGHMADLLATLIPQYMDQNLYLVVKGGVPETTELLKERFDHIMYTGSTAVGKIVMAAAAKHLTPVTLELGGKSPCYVDKDCDLDVACRRIAWGKFMNSGQTCVAPDYILCDPSIQNQIVEKLKKSLKDFYGEDAKQSRDYGRIINDRHFQRVKGLIDNQKVAHGGTWDQSSRYIAPTILVDVDPQSPVMQEEIFGPVMPIVCVRSLEEAIQFINQREKPLALYVFSNNEKVIKKMIAETSSGGVTANDVIVHITVPTLPFGGVGNSGMGAYHGKKSFETFSHRRSCLVKSLLNEEAHKARYPPSPAKMPRH | soluble
18 | MSIVMQLQDVAESTRLGPLSGEVRAGEILHLVGPNGAGKSTLLARMAGMTSGKGSIQFAGQPLEAWSATKLALHRAYLSQQQTPPFATPVWHYLTLHQHDKTRTELLNDVAGALALDDKLGRSTNQLSGGEWQRVRLAAVVLQITPQANPAGQLLLLDEPMNSLDVAQQSALDKILSALSQQGLAIVMSSHDLNHTLRHAHRAWLLKGGKMLASGRREEVLTPPNLAQAYGMNFRRLDIEGHRMLISTI | soluble
19 | MSIVNILSVNVLNNPAKFSDPYKFEITFECLEPLKSDLEWKLTYVGSATSQSYDQILDTLLVGPIPIGINKFVFEADPPNIDLLPQLSDVLGVTVILLSCAYEDNEFVRVGYYVNNEMEGLNLQEMDDAEIKKVKVDISKVWRSILAEKPRVTRFNIQWDN | soluble
20 | MSIYYDLYENPKQEDAEEQKLLHARVVPSGTYTTKEFVERVSMMHHIPHAQLVGAVEAITDELQTLLSRGYIVEFGDLGHFSLTLSLEKEIIDRKEVRSPSIRLKNIKLKVKQTYKRELNSKMDLERISSPTRSNAKISEDECLKKLQDFLEKHPCINRADYCAITGMSRLQALHQLNLFIEKGIIQKYGNGKTVVYIRVV | not soluble
21 | MSKAKIGIVTVSDRASAGIYEDISGKAIIDTLNDYLTSEWEPIYQVIPDEQDVIETTLIKMADEQDCCLIVTTGGTGPAKRDVTPEATEAVCDRMMPGFGELMRAESLKFVPTAILSRQTAGLRGDSLIVNLPGKPKSIRECLDAVFPAIPYCIDLMEGPYLECNEAVIKPFRPKAK | soluble
